# Source: the nanobody polyreactivity screen of Harvey et al. (2022)
# Assay: yeast display, Sf9 membrane polyspecificity reagent, FACS + sequencing; frameworks hold sequencing errors
# Procedure, shortened: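 Using colony PCR, genes from sorted yeast display clones were amplified, then sequenced on MiSeq at 2 × 250 and filtered by CDR length. The clones had been stained with 10% biotinylated, detergent-solubilized Sf9 membrane reagent for 1 hour at 4 °C and sorted by FACS into low and high (top ~1%) gates on anti-HA and streptavidin fluorescence. Polyreactivity labels come from the gate of origin.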
sequence,measurement,value
QVQLVESGGGLVQPGGSLRLSCAASGGTFYRYAMGWYIQAPGKERELVAAISSRGGSTYYADSVKGRYTISRDNAKNTVYLQMNSLKPEDTAVYYCAALFYLTQWQYDYWGQGTQVTVSS,polyreactivity (PSR sort gate),high polyreactivity
QVQLVESGGGLGQAGGSLRLSCAASGLTFTKNVMGWSSQAPGKERELVAVISRSGGSTYYADSVKGRFTISRDNAKNTVYLQMISLKPEDTAVYYCNVKGPGPSRGNYWGQGTQVTVSS,polyreactivity (PSR sort gate),low polyreactivity
QVQLVESGGGLVQAAGSLRLSCAASGFTFWLYAMGWYRQAPGSEREMVAAIRRGGGTNYADSVKGRFTISRDNAKNTVYLQMNSLKPEDTAVYYCAAAVLSYRHAHAGYYYAKGDYWGQGTQVTVSS,polyreactivity (PSR sort gate),high polyreactivity
QVQLVESGGGLVQAGGSLRLSCAASGFIFGLYAMGWYRQAPGKERELVASISRRGGSTYYADSVKGRFTISRDNAKNTVYLQMNSLKPEDTAVYYCNAVGRLYLYGSWGQGTQVTVSS,polyreactivity (PSR sort gate),high polyreactivity
QVQLVESGGGLVQAGGSLRLSCAASGRIFGRYVMGWYRQAPGKERELVAAITSRDDSTYYADSVKGRFTISRDNAKNTVYLQMNSLKPEDTAVYYCAATWGRGYDYWGQGTQVTVSS,polyreactivity (PSR sort gate),high polyreactivity
QVQLVESGGGLVQAGGSLRLSCAASGFTFIFNAMGWYRQAPGKERELVATISWGGGSTYYADSVKGRFTISRDNAKNTVYLQMNSLKPEDTAVYYCNADGYTLWYEYDYWGQGTQVTVSS,polyreactivity (PSR sort gate),low polyreactivity
QVQLVESGGGLVQEGGSLRLSCAASESNFPRNAMGLYRKEPGKEREIVAAISSAGSTYYADSVKWRFTISRDNAKNTVYLQMNSLKQEDTAVYYCAARLYWPLIVVDLYGYDYWGQGNQVTVSS,polyreactivity (PSR sort gate),low polyreactivity
QVQLVESGGGLVQAGGSLRLSCAASGNIFKVNAMGWYRQAPGKERELVAGISWSGGSTYYADSVKGRFTISRDNAKNTVYLQMNSLKPEDTAVYYGNVGRGYWGYLYDYWGQGTQGTVSS,polyreactivity (PSR sort gate),low polyreactivity
QVQLVESGVGLVQAGGSLRLRCAASGFTFRYYAMGWNRQAPGKERELVATMSSAGTTNYADSVKGRFTISRDNAKNTVYLPMNSLKPEDTAVYYCAKDLYYRHWRGGFWGQGTQVTVSS,polyreactivity (PSR sort gate),low polyreactivity
QVQLVESGGGLVQAGGSLRLSCAASGSTFWFNAMGGSRQAPGKERELVAAIPSRGGYTYYADSVKGRFTISRDHAKNTVYLQMNSLKPEDTAVYYCAADYRYSSRKVFHFDYWGQGTQVTVSS,polyreactivity (PSR sort gate),low polyreactivity
QVQLVESGGGLVQAGGSLRLSCAASGNTFRLYGMGWYRQAPGKERELVAAIRSGDRTYYADSVKGRFTISRDNAKNTVYLQMNSLKPEDTAVYYCAARVNLSKLFGYWGQGTQVTVSS,polyreactivity (PSR sort gate),high polyreactivity
QVQLEESGGGLVQAGGSLRLTCAACGSIFGPNAMGWYRQAPGKERELVAAIDSSDGSTYYADSVKGRFTISRDNAKNSVYLQMNSLKPEDTAVYYCADELGYIYYSYWWQYDYWGQGTQVTVSS,polyreactivity (PSR sort gate),high polyreactivity
QVQLVESGGGLVQAGGSLRLSCAASGSTFPVYAMGWYRQAPGKERELVAAISRSGASTYYADSVKGRFTISRDNAKNTVYLQMNSLKPEDTAVYYCARGYQGRLKYEYWGQGTQVTVSS,polyreactivity (PSR sort gate),low polyreactivity
QVQLVESGGGLVQAGGSLRLSCAASGSNFLFNAMGWYRQAPGKERELVAAINRDDSTYYADSVKGRFTISRDNAKNTVYLQMNSLKPEDTAVYYCARDYRYTIPYDYWGQGTQVNVSS,polyreactivity (PSR sort gate),low polyreactivity
QVQLVESGVGLVQAGGSLRLSCAASGSIFGFYAMGWSRQAPGKERELVAAISDSGDSTYYADSVKGRFTISRDNAKNTVYLQMNSLKPEDTAVYNCATDGRSNYYWGDYWGQGTQVTVSS,polyreactivity (PSR sort gate),low polyreactivity
QVQLVESGGGLVQAGGSLRLSCAASGSTLVYNDMGWYRQAPGKERELVAAISSGASTYADSVKGRFTISRDNAKNTVYLQMNSLKPEDTAVYYCAKDIKLGPVGHSKYHRYDYWGQGTQVTVSS,polyreactivity (PSR sort gate),low polyreactivity
QVQLVETGGGLVQAGGSLGLSCDASGSTFLYVRGWYRQAPGKERELVAAISESGGSPYYADSVKGRFTISRDNAKNTVYLQMNSLKPEDTAVYYCAADLPSGLQYRYYRVDYWGQGTQVTVSS,polyreactivity (PSR sort gate),low polyreactivity
QVQLVESGGGLVQAGGSLRLSCAASGSIFKLNAMGWYRQAPGKERELVAVINKSGGRTYYADSVKGRFTISRDNAKNTVYLQMNSLKPEDTAVYFCNAVSKLAVNLDYWGQGTQVTVSS,polyreactivity (PSR sort gate),high polyreactivity
QVQLVESAGGLVQAGGSLRLSCAASGSTFVWYAMGGYRQAPGKERELVDAINFGGTTYYADSVKGRFRISRYNAKNTVYLQLNSLKPEDTAVYYCATEYDYGSWFPDGWGIFDYWGQGTQVTVSS,polyreactivity (PSR sort gate),low polyreactivity
QVQLVESGGGLVEAGGSLRLSCAASGSTFVIYTIGCYRQAPGTQRELVAAISSSGGITYYSDSVKGRFTISRDNAKNTVYLQMNSLKPEDTAVYYCAADSRSAYSPYYYWGQGTQVTVSS,polyreactivity (PSR sort gate),high polyreactivity
QVQLVESGGGLVQAGGSLRLSCAASGSTFLRYAMGWYRQAPGKERELVATITSGGSTYADSVKGRFTISRDNAKNTVYLQMNSLKPEDTAVYYCAARANTKKPYYYWGQGTQVTVSS,polyreactivity (PSR sort gate),high polyreactivity
QVQLVESGGGLVQAGGSLRLSCAASGRTFGYYGMGWYRQAPGKERELVASINFSSGSTFYADSVKGRFTISRDNAKNTVYLQMNSLKPEDTAVYYCAARAKAVRTYAYNYWGQGTQVTVSS,polyreactivity (PSR sort gate),low polyreactivity
QVQLEESGGGLVQAGGSLRLSCAASGRTFDRYAMGWYRQAPGKERELVAAITWSGGRTYYADSVKGRFTISRVNAKNTVYLQMNSLKPEDTAVYYCAADNSYRGYHSPYDYWGQGTQVTVSS,polyreactivity (PSR sort gate),low polyreactivity
QDQLVESGGGLVQAGGSLRLSCAASGRIFHGNAMGWYRQARGKEWELVAAISRRGGSTYSADSVKGRFTISRDNAKNTVYLQMNSLKPEDTAVYYCAAVWPYGSRGAPMDYWGQGTQVTVSS,polyreactivity (PSR sort gate),high polyreactivity
QVQLVESGGGLVHAGGSLRLSCAASGGTFVYNAMGWYRQAPGKERELVAVISKRGGSTYYADSVKGRFTISRDNAKNTVYLEMISLKPEDTAVYYCAVSYRSFRYYWERYYSWGQGTQVTVSS,polyreactivity (PSR sort gate),high polyreactivity
QVQLVESGGGLVKAGGSLRFSCAASVITFVWYAMGWYRQAPGKERDLVASIDSSVSTNYADSVKGRFTISRDNEKNTVYFQMNSLKPEDTAVYYCAAYFFFGQVGGMEYWGQGTQVTVSS,polyreactivity (PSR sort gate),low polyreactivity
QVQLVESGGGLVQAGGSLRLSCAASGSTFLRNAMGWYRQAPGKERQLVAAISRRGGSTYYADSVKGRFTISRDNAKNTVYLQMNSLKPEDTSVYYCAKDYRSPISGDYWGQGTQVTVSS,polyreactivity (PSR sort gate),high polyreactivity
QVQLVESGGGLVQAGGSLRLSCAASGSTFRYYTMGWYRQAPGKERELVAAITWSGGSTYYADSVKGRFTISRDNAKNTVYLQMNSLKPEDTAVYYCNARSLQWTPRAYYYWGQGTQVTVSS,polyreactivity (PSR sort gate),high polyreactivity
QVQRVESGGGLVQAGGSLRLSCAASGRIFVAYVMGWYRQAPGKERELVAAITRSGGRTYYADSVKGRFTISRDNAKNTVYLQMNSLKPEDTAVYYCATDSGWSTYDYWGQGTQVSVSS,polyreactivity (PSR sort gate),high polyreactivity
QVQLVESGGGLVQAGGSLRLSCAASGSIFTYNAMGWYRQAPGKERELVASITWSGGSTYYADSVKGRFTISRDNAKNTVYLQMNSLKPEDTAVYYCAAKRVHGATGYWGQGTQVTVSS,polyreactivity (PSR sort gate),high polyreactivity
QVQLVESGGGLVQAGGSLRLRCAASGRTFGGNAMGWYRQAPGKERELVAAISFSGGSTYYADSVKGRFTISRDNAKNTVYLQMNSLKPEDTAVYYCAARYYWSVYADQGDYWGQGTQVTVSS,polyreactivity (PSR sort gate),low polyreactivity
QVQLVESGGGLVQAGGSLRLSCAASGFIFWGNTMVWYRQAPGKERELVAAITYSGGSTYYADSVKGRFTISRDNAKNTVYLQMNSLKPEDTAVYYCNKVFVYRGDYWGQGSQVTVSS,polyreactivity (PSR sort gate),high polyreactivity
QVQHVESGGGLVQAGGSLRLSCAASGSTFRFYDMGWYRQSPGKERELVATISSSGGTTYYADSVKGRFTISRDNAKNTVYLQMNSLKPEDTAVYYCNKYYGGRYRQYAYGYWGQGTQVTVSS,polyreactivity (PSR sort gate),high polyreactivity
QVQLVESGGGLVQAGGSLRLSCAASGRTFGVYVMGWYRQAPGKERELVAVITISGGSTYYADSVKGRFTISRDNAKNTVYLQMNSLKPEDTAVYYCAARTYYGYDYWGQGTQVTVSS,polyreactivity (PSR sort gate),high polyreactivity
QVQLVESGGGLVQAGGSLRLSCAASGSIIVYYAMGWYRQAPGKQRELVAANDQSGGSTYYADSVKGRFTISRDNAKNTVYLQMNSLKPEDTAVYYCASVHSLYWLGDDTYGYDYWGQGTQVTVSS,polyreactivity (PSR sort gate),low polyreactivity
QVQLVESGGGLVQAGGSLRLSCAASGFIFRYYAKGWYREAPGKERELVAAITSGGASTYYADSVKGRFRISRDNAKNTVYLQMNSLKPEDTPVYYCAADTSSYSEYDYWGQGTQVTVSS,polyreactivity (PSR sort gate),low polyreactivity
QVQLVESGGVLVQAGGSLRLSCAASGRTFLYNAMGWYRQAPGKERELVAAISSRGARTYYADSVKGRFTISRDNAKKTVYLQMNSLKPEDTAVYYCAASYTTAYYRYDYWGQGTQVTVSS,polyreactivity (PSR sort gate),high polyreactivity
QVQLVESGGGLVQAGGSLRLSCAASGFIFAWYAMGWYRQAPGKEREMVAAITSGGRTYYADSVKGRFTISRDNAKNTVYLQMNSLKPEDTAVYYCATDAVASHRPYKYGPQSGSWGQGTQVTVSS,polyreactivity (PSR sort gate),high polyreactivity
QVQLVESGGGLVQAGGSLSLSCAASGRIFAGYAMGWYRQAPGKERELVAVISSRGGRTYYADSVKGRFTISRDNAKNTVYLQMNSLKPEDTAVYYCNRVFSYQYKRDYWGQGTQVTVSS,polyreactivity (PSR sort gate),high polyreactivity
QVQLVESGGGFVQAGGSLRLSCAASGRIFPEYSRGWYRQAPGKERELVASINSDGSTNYADSVKGRFTISRDNAKNTVYLQMNSLKPEDTAVYYCATEGSGTGIFISKFDYWGQGTQVTVSS,polyreactivity (PSR sort gate),low polyreactivity
QVQLVETGGGLVQAGGSLRLSSGASGFIFVRNAMGWYRQAPGKEREFVAAINSSGGRTYYADSVKGRFTISRDNANNTVNLQMNSLKPEDTAVYYCAARPQPKKFYYWGQGTQETVSS,polyreactivity (PSR sort gate),high polyreactivity
QVQLVESGGGLVQAGGSHRLSCAASGSTFVVYSLGWYRQAPGKERELVAAITSSGGRTYYADSVKGRFTISRDNAKNTVYLQMNSLKPDDTAVYYGNAVYSRQSSNKGEYWGQGTQVTVSW,polyreactivity (PSR sort gate),high polyreactivity
QVQLVESGGGLVQAGGSLRLSCAASGSIFPGNAMGWSRQAPGKEREFVAAISWSGGSTYADSVKGRFTISRDNAKNTVYLQINSVKPEDTAVYYCAAVRRYLKAAYGYWGQGTKVTVSS,polyreactivity (PSR sort gate),low polyreactivity
